# Test results reported in patent US20220356235A1 (STICHTING SANQUIN BLOEDVOORZIENING, published 2022).
# T1: recombinant human FH fragment CCP 18-20 (human, UniProt P08603 1046-1231)
# T1 construct: domain: CCP 18-20; also called fragment of FH comprised of domain 18-20
# T1 sequence (looked up): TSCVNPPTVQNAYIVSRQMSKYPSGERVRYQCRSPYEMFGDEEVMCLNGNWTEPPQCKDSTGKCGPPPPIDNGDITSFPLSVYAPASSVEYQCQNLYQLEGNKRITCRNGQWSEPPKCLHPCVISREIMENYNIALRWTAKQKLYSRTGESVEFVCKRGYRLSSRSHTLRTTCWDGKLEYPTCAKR
# T2: recombinant human FH fragment CCP 19-20 (human, UniProt P08603 1107-1231)
# T2 construct: domain: CCP 19-20
# T2 sequence (looked up): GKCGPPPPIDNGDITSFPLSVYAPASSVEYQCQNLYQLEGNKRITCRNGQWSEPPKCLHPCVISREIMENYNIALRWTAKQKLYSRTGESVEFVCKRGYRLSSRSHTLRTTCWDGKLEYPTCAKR
# T3: recombinant human FH fragment CCP 15-18 (human, UniProt P08603 868-1104)
# T3 construct: domain: CCP 15-18
# T3 sequence (looked up): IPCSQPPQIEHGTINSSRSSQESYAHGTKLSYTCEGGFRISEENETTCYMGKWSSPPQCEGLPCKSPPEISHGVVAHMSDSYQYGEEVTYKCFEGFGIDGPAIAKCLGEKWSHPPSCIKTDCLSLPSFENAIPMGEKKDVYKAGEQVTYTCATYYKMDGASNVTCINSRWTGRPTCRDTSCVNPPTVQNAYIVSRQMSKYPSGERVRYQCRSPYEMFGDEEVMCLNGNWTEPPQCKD
# T4: recombinant human FH fragment CCP 15-19 (human, UniProt P08603 868-1165)
# T4 construct: domain: CCP 15-19
# T4 sequence (looked up): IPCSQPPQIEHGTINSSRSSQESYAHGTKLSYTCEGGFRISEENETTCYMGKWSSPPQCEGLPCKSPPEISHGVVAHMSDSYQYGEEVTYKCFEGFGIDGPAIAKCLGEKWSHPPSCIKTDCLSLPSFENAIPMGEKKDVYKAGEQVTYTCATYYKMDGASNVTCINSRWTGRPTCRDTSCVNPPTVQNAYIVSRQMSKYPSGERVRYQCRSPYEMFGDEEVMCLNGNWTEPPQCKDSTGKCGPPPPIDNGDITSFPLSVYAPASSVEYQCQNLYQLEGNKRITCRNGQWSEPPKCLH
# B1: human factor H, full length (other, UniProt P08603 19-1231, looked up)
# chain: EDCNELPPRRNTEILTGSWSDQTYPEGTQAIYKCRPGYRSLGNVIMVCRKGEWVALNPLRKCQKRPCGHPGDTPFGTFTLTGGNVFEYGVKAVYTCNEGYQLLGEINYRECDTDGWTNDIPICEVVKCLPVTAPENGKIVSSAMEPDREYHFGQAVRFVCNSGYKIEGDEEMHCSDDGFWSKEKPKCVEISCKSPDVINGSPISQKIIYKENERFQYKCNMGYEYSERGDAVCTESGWRPLPSCEEKSCDNPYIPNGDYSPLRIKHRTGDEITYQCRNGFYPATRGNTAKCTSTGWIPAPRCTLKPCDYPDIKHGGLYHENMRRPYFPVAVGKYYSYYCDEHFETPSGSYWDHIHCTQDGWSPAVPCLRKCYFPYLENGYNQNYGRKFVQGKSIDVACHPGYALPKAQTTVTCMENGWSPTPRCIRVKTCSKSSIDIENGFISESQYTYALKEKAKYQCKLGYVTADGETSGSITCGKDGWSAQPTCIKSCDIPVFMNARTKNDFTWFKLNDTLDYECHDGYESNTGSTTGSIVCGYNGWSDLPICYERECELPKIDVHLVPDRKKDQYKVGEVLKFSCKPGFTIVGPNSVQCYHFGLSPDLPICKEQVQSCGPPPELLNGNVKEKTKEEYGHSEVVEYYCNPRFLMKGPNKIQCVDGEWTTLPVCIVEESTCGDIPELEHGWAQLSSPPYYYGDSVEFNCSESFTMIGHRSITCIHGVWTQLPQCVAIDKLKKCKSSNLIILEEHLKNKKEFDHNSNIRYRCRGKEGWIHTVCINGRWDPEVNCSMAQIQLCPPPPQIPNSHNMTTTLNYRDGEKVSVLCQENYLIQEGEEITCKDGRWQSIPLCVEKIPCSQPPQIEHGTINSSRSSQESYAHGTKLSYTCEGGFRISEENETTCYMGKWSSPPQCEGLPCKSPPEISHGVVAHMSDSYQYGEEVTYKCFEGFGIDGPAIAKCLGEKWSHPPSCIKTDCLSLPSFENAIPMGEKKDVYKAGEQVTYTCATYYKMDGASNVTCINSRWTGRPTCRDTSCVNPPTVQNAYIVSRQMSKYPSGERVRYQCRSPYEMFGDEEVMCLNGNWTEPPQCKDSTGKCGPPPPIDNGDITSFPLSVYAPASSVEYQCQNLYQLEGNKRITCRNGQWSEPPKCLHPCVISREIMENYNIALRWTAKQKLYSRTGESVEFVCKRGYRLSSRSHTLRTTCWDGKLEYPTCAKR
# notes: mature; In the serum assays (C3b deposition, hemolysis) the FH is that of normal human serum; also called FH; full length FH
# Experiments:
# C3b = biological target: T5, C3b (UniProt P01024 23-667; P01024 749-1663, limits assumed); assay: SPR (Biacore T200), C3b amine-coupled to CM5 chip, FH alone injected (10-0.01953 µM), 37 °C, equilibrium analysis; FH alone, no Fab′
# T5 construct: C3b has two chains (beta and alpha') derived from C3; also called purified C3b (Complement Technologies)
# T5 sequence (P01024 23-667 limits assumed, chain 1 of 2): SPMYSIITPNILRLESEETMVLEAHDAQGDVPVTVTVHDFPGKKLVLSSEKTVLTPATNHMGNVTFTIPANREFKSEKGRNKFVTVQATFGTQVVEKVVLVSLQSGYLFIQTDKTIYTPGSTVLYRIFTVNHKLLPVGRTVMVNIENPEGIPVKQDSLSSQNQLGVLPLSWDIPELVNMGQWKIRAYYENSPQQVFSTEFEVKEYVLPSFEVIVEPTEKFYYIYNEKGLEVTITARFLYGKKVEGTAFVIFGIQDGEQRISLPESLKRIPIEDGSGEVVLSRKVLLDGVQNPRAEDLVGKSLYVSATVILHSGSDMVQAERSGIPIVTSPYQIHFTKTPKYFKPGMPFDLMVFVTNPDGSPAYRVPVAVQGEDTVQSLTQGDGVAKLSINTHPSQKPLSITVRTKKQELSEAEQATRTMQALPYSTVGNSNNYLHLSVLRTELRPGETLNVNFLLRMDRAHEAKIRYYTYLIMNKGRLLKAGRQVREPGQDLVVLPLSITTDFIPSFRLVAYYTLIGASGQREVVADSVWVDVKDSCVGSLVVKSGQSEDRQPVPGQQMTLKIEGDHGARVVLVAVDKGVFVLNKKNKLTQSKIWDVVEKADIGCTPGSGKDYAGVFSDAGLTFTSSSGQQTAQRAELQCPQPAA
# T5 sequence (P01024 749-1663 limits assumed, chain 2 of 2): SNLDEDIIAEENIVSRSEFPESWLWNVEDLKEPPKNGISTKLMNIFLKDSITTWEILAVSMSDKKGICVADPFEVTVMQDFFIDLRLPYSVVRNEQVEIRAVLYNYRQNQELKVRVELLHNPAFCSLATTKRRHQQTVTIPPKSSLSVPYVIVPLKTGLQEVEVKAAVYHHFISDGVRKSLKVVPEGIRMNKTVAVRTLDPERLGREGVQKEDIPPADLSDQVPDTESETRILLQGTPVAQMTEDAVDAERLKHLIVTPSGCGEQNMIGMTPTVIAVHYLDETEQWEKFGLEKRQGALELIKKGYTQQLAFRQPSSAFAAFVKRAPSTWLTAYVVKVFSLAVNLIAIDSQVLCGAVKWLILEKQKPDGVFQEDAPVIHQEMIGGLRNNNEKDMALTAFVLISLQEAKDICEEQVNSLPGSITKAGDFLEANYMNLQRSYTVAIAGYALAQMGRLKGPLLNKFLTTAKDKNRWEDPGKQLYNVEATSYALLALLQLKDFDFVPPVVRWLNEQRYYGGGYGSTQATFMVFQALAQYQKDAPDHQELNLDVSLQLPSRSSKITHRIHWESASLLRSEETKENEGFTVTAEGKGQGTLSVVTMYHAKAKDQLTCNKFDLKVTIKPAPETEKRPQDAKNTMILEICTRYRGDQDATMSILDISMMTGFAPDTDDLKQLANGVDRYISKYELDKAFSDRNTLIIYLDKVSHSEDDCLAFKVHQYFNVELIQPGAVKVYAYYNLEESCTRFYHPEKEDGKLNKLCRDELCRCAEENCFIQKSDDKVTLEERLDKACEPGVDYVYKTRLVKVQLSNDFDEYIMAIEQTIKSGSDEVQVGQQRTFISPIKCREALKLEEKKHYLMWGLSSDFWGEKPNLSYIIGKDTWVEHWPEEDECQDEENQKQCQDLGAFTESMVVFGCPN
# Procedure: Binding of FH to C3b in the presence of the anti-FH moAbs was determined by surface plasmon resonance using a Biacore T200 instrument (GE Healthcare, Little Chalfont, UK). Purified C3b (Complement Technologies) was immobilized onto a flow cell of a CM5 Biacore Sensor Chip (GE Healthcare) using standard amine coupling. The remaining flow cell was used as reference surface and prepared by performing a coupling reaction without the addition of any protein. A response of 2000 response units (RUs) was obtained after coupling with C3b. SPR experiments were performed at 37° C. using a flow rate of 10 μl/min and in phosphate buffered saline pH 7.4 (PBS, Orphi Farma) supplemented with 0.01% (w/v) Tween-20 (Merck) (PBS-T).
# To determine the effect of the antibodies without interference of possible cross-linking via the moAb, recombinantly produced Fab′ fragments of the moAbs were used. Fab′ fragments were mixed with plasma purified FH (pdFH). […] Each Fab′ fragment was also injected without addition of FH to determine any interactions of the Fab′ fragments with the surfaces. The pdFH injection was followed by a dissociation of 60 seconds and surface was regenerated between each cycle by a single injection of 1 M NaCl (Merck).
# Data was analyzed using Scrubber 2 (Biologic Software) affinities were determined by equilibrium analysis.
# [1] = biological target: B1; assay: cell-based or functional assay
# [2] = biological target: T1, recombinant human FH fragment CCP 18-20; assay: SPR (Biacore T200), mAb captured on ProtA or ProtG chip, FH CCP18-20 flowed over, 1:1 model
# Procedure: (§1) Surface plasmon resonance (SPR) experiments were performed using a BiaCore T200 (GE Healthcare) and CM5 sensor chips (GE Healthcare) in accordance with the manufacturer's instructions. In short, to determine its affinity, anti-FH.07, anti-FHR-1 3B4 or anti-FHR-1 8E4 were captured onto a ProtA or ProtG coupled chip and either full length FH or a fragment of FH comprising domain 18-20 was flown over the captured moAB at decreasing concentrations.
# [3] = biological target: B1; assay: SPR (Biacore T200), mAb captured on ProtA or ProtG chip, full length FH flowed over, 1:1 model
# Procedure: as §1
# [4] = biological target: B1; assay: SPR, mAb captured on a ProtA or ProtG chip, full length FH flowed over, 1:1 binding model
# Procedure: as §1
# [5] = biological target: T2, recombinant human FH fragment CCP 19-20; assay: competition ELISA: mAb captured on RM-19 coated plate, FH-bt mixed with unlabelled CCP 19-20
# Procedure: (§2) The location of the epitope of anti-FHR-1 mAbs was determined using recombinant human FH fragments composed of multiple CCP domains (15-18, 15-19, 18-20 or 19-20). In short, anti-FHR-1 mAbs were captured on a RM-19 coated microtiterplate to assure optimal binding conformation. Next, biotinylated FH, mixed with a 100-fold higher concentration of the indicated unlabeled recombinant FH-fragments, was incubated on the plate for 1 hour. Binding of biotinylated FH was determined by incubation with 0.01% (v/v) streptavidin conjugated with poly-HRP, in HPE for 30 min. The ELISA was further developed as described above. To determine whether the anti-FHR-1 mAbs competed with anti-FH.07 for the binding of FH, a similar set-up was used. In short, mAbs were directly coated to the plate and binding of biotinylated FH (FH-bt) in the absence or presence of a 10-fold higher concentration of indicated mAbs was assessed by ELISA as described above.
# [6] = biological target: T3, recombinant human FH fragment CCP 15-18; assay: competition ELISA: mAb captured on RM-19 coated plate, FH-bt mixed with 100-fold excess of unlabelled CCP 15-18
# Procedure: as §2
# [7] = biological target: T4, recombinant human FH fragment CCP 15-19; assay: competition ELISA: mAb captured on RM-19 coated plate, FH-bt mixed with 100-fold excess of unlabelled CCP 15-19
# Procedure: as §2
# [8] = biological target: T1, recombinant human FH fragment CCP 18-20; assay: competition ELISA: mAb captured on RM-19 coated plate, FH-bt mixed with 100-fold excess of unlabelled CCP 18-20
# Procedure: as §2
# [9] = biological target: B1; assay: competition ELISA: mAb captured on RM-19 coated plate, FH-bt mixed with excess unlabelled full length FH; % of FH-bt binding without competitor
# Procedure: as §2
Binder,Kd (C3b) [nM],"IC50 (nM), Hemolytic assay [1] [nM]","IC50 (nM), LPS C3b dep. assay [1] [nM]",Kd [2] [nM],koff [2] [s⁻¹],kon [2] [M⁻¹ s⁻¹],Kd [3] [nM],koff [3] [s⁻¹],kon [3] [M⁻¹ s⁻¹],Kd [4] [nM],binding result [5],binding result [6],binding result [7],binding result [8],binding result [9]
B1,6000,–,–,–,–,–,–,–,–,–,–,–,–,–,–
"anti-FHR-1.3B4 (antibody, V domains shown, Mouse monoclonal from a hybridoma, raised against recombinant human FHR-1; also called aFHR-1 3B4) VH: QVQLRQSGPGLVQPSQSLSITCTVSGFSLTNYGVYWVRQSPGKGLEWLGVIWSGGTTDYSAAFISRLSISKDNSKSQVFFKMNSLQADDTAIYYCARNFGNYAMDYWGQGTSVTVSS VL: QIVLSQSPTILSASPGEKVTMTCRASSSVTYMHWYQQKPGSSPKPWIYATSNLASGVPARFSGSGSGTSYSLTISRVEAEDAATYYCQQRSSSNPLTFGAGTKLELK",–,94,38.4,0.00544,1.27e-05,2.39e+06,5.8,9.1e-05,15800,5.77,no binding,–,–,–,–
"anti-FH.07 (antibody, V domains shown) VH: QVQLQQSGPGLVQPSQSLSITCTVSDFSLARYGVHWIRQSPGKGLEWLGVIWSGGTADYNAAFISRLNINKDNSKSQVFFKMNSLQANDTAIYYCARNFGNYAVDYWGQGTS VL: QIVLSQSPTFLSASPGEKVTVTCRASSSVKYMHWYQQKPGASPKPWIFATSNLASGVPARFSGSGSGTSYSLTISRVEAEDAATYYCQQWSIIPPTFGNGTKLELK",–,153,38.8,0.32,0.00027,833000,29.7,0.000181,6090,–,no binding,–,–,–,–
"anti-FHR-1.11E1 (antibody, V domains shown, Mouse monoclonal from a hybridoma, raised against recombinant human FHR-1) VH: QVQLKQSGPGLVQPSQSLSITCTVSGFSLTNYGVHWVRQPPGKGLEWLGVIWSGGNTDYNAAFISRLSISKDNSKSQVFFKMNSLQADDTAIYYCAKNGDYGYTMDYWGQGTSVTVSS VL: DVVMTQTPLSLPVSLGDQASISCRSSQSLVHSNGNTYLHWYLQKPGQSPKLLIYKLSNRFSGVPDRFSGSGSGTDFTLKISRVEAEDLGVYFCSQSTHVPFTFGSGTKLEIK",–,–,25,–,–,–,–,–,–,–,no binding,–,–,–,–
"FHR-1.14C4 (antibody, V domains shown, Mouse monoclonal from a hybridoma, raised against recombinant human FHR-1) VH: EVQLQQSGPELEKPGASVKISCKASGYSFTGYNMHWVKQSNGTSLEWIGKIDPYYGDTSYNQRFKGKATLTVDKSSSTAYMQLKSLTSEDSAVYYCARAFYRDYALDYWGRGTSVTVSS VL: DIVMTQSPSSLTVTAGEKVTMSCKSSQSLFNSGNQKNYLTWYQQKPGQPPKLLIYWASTRESGVPDRFTGSGSGTDFTLTISSVQAEDLAVYYCQNDYSYPLTFGAGTKLELK",–,–,–,–,–,–,–,–,–,–,no binding,binds,binds,binds,binds
